Reference: PMC11530851

B1: Non-TEL18 (ssDNA)
DNA: AGCGTATCCGTTCAGTTG
B2: dsRNA (ss poly(A) + Css27) (dsRNA)
RNA 1: CCCCACCACCAUCACUUAAAAAAAAAA
RNA 2: UUUUUUUUUUAAGUGAUGGUGGUGGGG
B3: ss poly(A) DNA (ssDNA)
DNA: CCCCACCACCATCACTTAAAAAAAAAA
B4: TEL18 (ssDNA)
DNA: GGTTAGGGTTAGGGTTAG
B5: ss poly(A) (ssRNA)
RNA: CCCCACCACCAUCACUUAAAAAAAAAA

Target: SKIV2L (hSKI complex subunit);TTC37 (hSKI complex subunit);WDR61 (hSKI complex subunit) (human;human;human, UniProt Q15477;Q6PGP7;Q9GZS3 1-1246;1-1564;1-305, ||)
Assay: EMSA; 2 mM Mg2+; 25 mM Hepes-KOH pH 7.6, 2 mM Mg acetate, 50 mM NaCl, 1 mM DTT, 0.1 mg/ml BSA, 1 nM substrate, 37 C 30 min; 0.7% agarose gel at 4 C

Row | Binder | Kd [nM] | binding result
1 | B1 | 30 | 
2 | B2 |  | no binding
3 | B3 |  | binds
4 | B4 | 12 | 
5 | B5 |  | binds
